Tests used:
[1] = molecular target: Recombinant his-tagged HA1 from H7N7 strain A/Chicken/Netherlands/01/03 (Abcam Cat. No. ab61286) (Influenza A virus A/Chicken/Netherlands/01/03 (H7N7))
[2] = substrate: F protein of hRSV strain B-1 (human respiratory syncytial virus, strain B-1 (ATCC VR-1580)) (UniProt P13843); experiment: cell-based or functional assay
[3] = substrate: F protein of hRSV strain Long (human respiratory syncytial virus, strain Long (ATCC VR-26)) (UniProt P12568); experiment: cell-based or functional assay
[4] = molecular target: H5 Hemagglutinin (HA, A/Vietnam/1203/2004 (H5N1), Protein Sciences Cat. No. 3006) (influenza A virus A/Vietnam/1203/2004 (H5N1)); experiment: SPR (Biacore), H5 coupled on CM5, 1:1 Langmuir model
[5] = molecular target: recombinant his-tagged HA0 trimer from H5N1 strain A/Anhui/1/2005 (Abcam, Cat. No. ab53938) (influenza A virus A/Anhui/1/2005 (H5N1)); experiment: ELISA on recombinant haemagglutinin, detection with rabbit anti-NANOBODY serum
[6] = molecular target: recombinant his6-tagged haemagglutinin HA1, Abcam ab53875; experiment: as above
[7] = substrate: F protein of hRSV strain Long (human respiratory syncytial virus, strain Long) (UniProt P12568); experiment: cell-based or functional assay
[8] = molecular target: Rabies virus glycoprotein G, Challenge Virus Standard (CVS)-11 strain (Rabies virus, strain CVS-11 (genotype 1 Lyssavirus)) (UniProt O92284); experiment: cell-based or functional assay
[9] = molecular target: Rabies virus glycoprotein G, ERA strain (attenuated vaccine strain, ATCC VR332) (Rabies virus, ERA strain (genotype 1 lyssavirus)) (UniProt P03524); experiment: cell-based or functional assay

B1: IV26 (yeast-produced NANOBODY (VHH sequence)) (VHH)
VHH: QVQLQESGGGLVRTGDSLRLSCAASGRTFNGYAMAWFRQAPGKGREFVAAVTWSSGTTNYAGSVKDRFTVSRDNANNTMYLQMNSLKPEDTAVYICGAASGYRSTDRLSDPAWTNYWGQGTQVTVSS
- ELISA titer (NANOBODY concentration giving extinction 1) [1]: 80.6 ng/mL

B2: IV21 (yeast-produced NANOBODY (VHH sequence)) (VHH)
VHH: QVQLQQSGGGLVQAGGFLRLSCAASGRSFNTYAMGWFRQAPGKEREFVAGITRSGTATDYIDSVKGRFTISRDNARDTVYLQMNRLNPEDSAVYYCAAHANYDRMINSEYKYWGQGTQVTVSS
- ELISA titer (NANOBODY concentration giving extinction 1) [1]: 69 ng/mL

B3: IV5 (yeast-produced NANOBODY (VHH sequence)) (VHH)
VHH: QVQLQQSGGGLVQAGGSLRLSCAASGRTFSTTGMGWFRQAPGKEREFVAAFWWTGGQTFYADSVKGRFTISGDNAGNTVDLQMNSLKPEDTAVYACAAMSKPRNLWRTDSYDYWGQGTQVTVSS
- ELISA titer (NANOBODY concentration giving extinction 1) [1]: 30.7 ng/mL

B4: NC41 (VHH)
VHH: EVQLVESGGGLVQAGGSLSISCAASGGSLSNYVLGWFRQAPGKEREFVAAINWRGDITIGPPNVEGRFTISRDNAKNTGYLQMNSLAPDDTAVYYCGAGTPLNPGAYIYDWSYDYWGRGTQVTVSS
- Neutralization IC50 (nM), B-1 (first assay) [2]: 4710 nM
- Neutralization IC50 (nM), B-1 (second assay) [2]: 3290 nM
- Neutralization IC50 (nM), Long (first assay) [3]: 202 nM
- Neutralization IC50 (nM), Long (second assay) [3]: 122 nM

B5: NC41v03 (VHH)
VHH: EVQLLESGGGLVQPGGSLRISCAASGGSLSNYVLGWFRQAPGKGREFVAAINWRGDITIGPPNVEGRFTISRDNSKNTLYLQMNSLRPEDTAVYYCGAGTPLNPGAYIYDWSYDYWGQGTLVTVSS
- Neutralization IC50 (nM), B-1 (first assay) [2]: 1510 nM
- Neutralization IC50 (nM), Long (first assay) [3]: 255 nM

B6: 203B12 (VHH)
VHH: EVQLVESGGGLVQPGGSLRLSCAASGFTFSSYAMGWVRRAPGEGLEWVSSISSGGALPTYADSVKGRFTISRDNVKNTLYLQMNSLKPEDTAVYSCEKYAGSMWTSERDAWGQGTQVTVSS
- Kd [4]: 30 nM

B7: IV146 (VHH)
VHH: QVQLQQSGGGLVQAGGSLRLSCAASGSSFSINAMGWYRQAPGKQRELVAAISSGGSANYADSVKGRFTISRDNAKNTVYLQMNSLKPEDTAVYYCNAGSRFNPFGSAYDYWGQGTQVTVSS
- ELISA titer (NANOBODY concentration giving extinction 1) [5]: 162 ng/mL
- ELISA titer (NANOBODY concentration giving extinction 1) [6]: 62.9 ng/mL

B8: LG192C10 (VHH)
VHH: EVQLVESGGGLVQAGGSLRLSCAASEGYFRNYMVGWFRQAPGGERMFVAAISDTAYYADSVKGRFTISRDNAKNTVYLPMNSLKPEDTAVYYCAAAPKSWGTWPLVADTRSYHFWGQGTQVTVSS
- hRSV micro neutralization, strain Long on Hep2 cells [7]: > 3 µM

B9: LG192A8 (VHH)
VHH: EVQLVESGGGLVQAGGSLRLSCAASERTVIAYTMGWFRRAPGKERDFVAAMNWNGGNTIYADSAKGRFTISRDNAKNTVYLQMNSLKAEDTAVYYCAARPRFWGSYEYDYWGQGTQVTVSS
- CVS-11 neutralizing antibody titer (RFFIT), IU/mg [8]: < 0.77 IU/mg
- CVS-11 neutralizing antibody titer (RFFIT), IU/ml [8]: < 0.5 IU/ml
- CVS-11 neutralizing antibody titer (RFFIT), IU/µM [8]: < 0.02 IU/µM
- CVS-11 neutralizing antibody titer (RFFIT), nM IC50 [8]: > 4840 nM
- ERA neutralizing antibody titer (RFFIT): EU/mg [9]: < 0.77 EU/mg
- ERA neutralizing antibody titer (RFFIT): EU/ml [9]: < 0.5 EU/ml
- ERA neutralizing antibody titer (RFFIT): EU/µM [9]: < 0.02 EU/µM
- ERA neutralizing antibody titer (RFFIT): nM IC50 [9]: > 4840 nM
- hRSV micro neutralization, strain Long on Hep2 cells [7]: > 3 µM

B10: NC41v06 (VHH)
VHH: EVQLLESGGGLVQPGGSLRLSCAASGGSLSNYVLGWFRQAPGKGREFVAAINWRDDITIGPPNVEGRFTISRDNAKNTLYLQMNSLRPEDTAVYYCGAGTPLNPGAYIYDWSYDYWGQGTLVTVSS
- Neutralization IC50 (nM), B-1 (first assay) [2]: 806 nM
- Neutralization IC50 (nM), Long (first assay) [3]: 111 nM

B11: NC41v18 (VHH)
VHH: EVQLLESGGGLVQPGGSLRLSCAASGGSLSNYVLGWFRQAPGKGREFVAAINWRDDITIGPPNVEGRFTISRDNSKNTLYLQMNSLRPEDTAVYYCGAGTPLNPGAYIYDWSYDYWGQGTLVTVSS
- Neutralization IC50 (nM), B-1 (first assay) [2]: 728 nM
- Neutralization IC50 (nM), B-1 (second assay) [2]: 194 nM
- Neutralization IC50 (nM), Long (first assay) [3]: 116 nM
- Neutralization IC50 (nM), Long (second assay) [3]: 98 nM

B12: IV154 (VHH)
VHH: QVQLQESGGGLVQAGGSLRLSCAASGRPFSSAAMGWFRQAPGKEREFVSAISYTGDVTRYADSVKGRFTISRDNTRNTLTLEMNSLKPEDTAVYYCAARTYAGVRAHTYDYDYWGQGTQVTVSS
- ELISA titer (NANOBODY concentration giving extinction 1) [5]: > 10000 ng/mL
- ELISA titer (NANOBODY concentration giving extinction 1) [6]: > 10000 ng/mL

B13: LG192C6 (VHH)
VHH: EVQLVESGGGLVQAGGSLRLSCEASGRTERYQAMGWFRQAPGKEREFVAVVTRWSGARTVYADSVKGRFTISRDNAENTVYLQMNSLKPEDTAVYTCAADSTNRNRGAIYYTWAYDYWGQGTQVTVSS
- hRSV micro neutralization, strain Long on Hep2 cells [7]: > 3 µM

B14: LG192H2 (VHH)
VHH: EVQLVESGGGLVQAGGSLRLSCEASGRTFSNYAMGWFRQAPGKEREFVAVVTRWSGGRTVYADSVKGRFTISRDNAENTVYLQMNSLKPEDTAVYTCAADSTNRNSGAWYYTWAYDHWGQGTQVTVSS
- hRSV micro neutralization, strain Long on Hep2 cells [7]: > 3 µM

B15: IV29 (yeast-produced NANOBODY (VHH sequence)) (VHH)
VHH: QVQLQESGGGLVQAGGSLRLSCVASGRTLDNYAMGWFRQAPGAEREFVGAISANGEDTQYTESVQGRFTISKDNAKSTVYLDMNSLKPEDTAVYYCAADRKTLTYYTSRLRSRYEYWGQGTQVTVSS
- ELISA titer (NANOBODY concentration giving extinction 1) [1]: 7.2 ng/mL

B16: IV155 (VHH)
VHH: QVQLQESGGGLVQAGGSLRLSCAASGRSLSRYAMGWFRQAPGKEREFVATKTSGGVTYYGASVKGRFTISRDNAKNMVYLQMNSLNPEDTAIYYCAAGTDAIFKPWMLPDYWGQGTQVTVSG
- ELISA titer (NANOBODY concentration giving extinction 1) [5]: > 10000 ng/mL
- ELISA titer (NANOBODY concentration giving extinction 1) [6]: > 10000 ng/mL

B17: IV37 (yeast-produced NANOBODY (VHH sequence)) (VHH)
VHH: QVQLQESGGGLVQAGDSLRLSCAAPGRSFSGGAMSWFRQVPGKEREFVAAIRWSGGGIRYADSVKGRFTISRDNAKNTFYLQMNSLKPEDTAVYYCAIDPRADLVATMTSIRYWGQGTQVTVSS
- ELISA titer (NANOBODY concentration giving extinction 1) [1]: 31.4 ng/mL

B18: LG202C8 (VHH)
VHH: EVQLVESGGGLVQPGGSLRLSCTGSGFTFSSYWMDWVRQTPGKDLEYVSGISPSGSNTDYADSVKGRFTISRDNAKNTLYLQMNSLKPEDTALYYCRRSLTLTDSPDLRSQGTQVTVSS
- Kd [4]: 10 nM

B19: IV25 (yeast-produced NANOBODY (VHH sequence)) (VHH)
VHH: QVQLQQSGGGLVQSGGSLSLSCAASGITLNNRVVGWFRQAPGKEREFVGRIMWSVGDTFYARSVKGRFTISRDNAKNTMYLQMNALKPEDTAVYYCAAARDPDLYTGQYEYWGQGTQVTVSS
- ELISA titer (NANOBODY concentration giving extinction 1) [1]: 27.8 ng/mL

B20: IV1 (yeast-produced NANOBODY (VHH sequence)) (VHH)
VHH: QVQLQESGGGLVETGGSLRLSCAASGRTFGGYALAWFRQAPGKGREFVAAVTWTSGTTNYAGSVKDRFTVSRDNAGNTMYLQMNSLRPEDTAVYICGAASGYRSPDRLSEPNWVNYWGQGTQVTVSS
- ELISA titer (NANOBODY concentration giving extinction 1) [1]: 62.2 ng/mL

Source: patent US20200123233A1
